From article PMC8301185, “Secondary Structure of the Novel Myosin Binding Domain WYR and Implications within Myosin Structure” (Biology, 2021)
Ends that are not written are not given here.

Columns and labels:
[1] = biological target: T1, LMM (V1346 through I1941 of D. melanogaster myosin heavy-chain) (Drosophila melanogaster, UniProt P05661); experiment: Co-sedimentation assay of LMM titrated by WYR; type: binding
T1 construct: encompassing V1346 through I1941 of D. melanogaster myosin heavy-chain; made in house; host or cells: E. coli BL-21(DE3) pLysS
T1 sequence (P05661 1-1936 isoform P05661-24): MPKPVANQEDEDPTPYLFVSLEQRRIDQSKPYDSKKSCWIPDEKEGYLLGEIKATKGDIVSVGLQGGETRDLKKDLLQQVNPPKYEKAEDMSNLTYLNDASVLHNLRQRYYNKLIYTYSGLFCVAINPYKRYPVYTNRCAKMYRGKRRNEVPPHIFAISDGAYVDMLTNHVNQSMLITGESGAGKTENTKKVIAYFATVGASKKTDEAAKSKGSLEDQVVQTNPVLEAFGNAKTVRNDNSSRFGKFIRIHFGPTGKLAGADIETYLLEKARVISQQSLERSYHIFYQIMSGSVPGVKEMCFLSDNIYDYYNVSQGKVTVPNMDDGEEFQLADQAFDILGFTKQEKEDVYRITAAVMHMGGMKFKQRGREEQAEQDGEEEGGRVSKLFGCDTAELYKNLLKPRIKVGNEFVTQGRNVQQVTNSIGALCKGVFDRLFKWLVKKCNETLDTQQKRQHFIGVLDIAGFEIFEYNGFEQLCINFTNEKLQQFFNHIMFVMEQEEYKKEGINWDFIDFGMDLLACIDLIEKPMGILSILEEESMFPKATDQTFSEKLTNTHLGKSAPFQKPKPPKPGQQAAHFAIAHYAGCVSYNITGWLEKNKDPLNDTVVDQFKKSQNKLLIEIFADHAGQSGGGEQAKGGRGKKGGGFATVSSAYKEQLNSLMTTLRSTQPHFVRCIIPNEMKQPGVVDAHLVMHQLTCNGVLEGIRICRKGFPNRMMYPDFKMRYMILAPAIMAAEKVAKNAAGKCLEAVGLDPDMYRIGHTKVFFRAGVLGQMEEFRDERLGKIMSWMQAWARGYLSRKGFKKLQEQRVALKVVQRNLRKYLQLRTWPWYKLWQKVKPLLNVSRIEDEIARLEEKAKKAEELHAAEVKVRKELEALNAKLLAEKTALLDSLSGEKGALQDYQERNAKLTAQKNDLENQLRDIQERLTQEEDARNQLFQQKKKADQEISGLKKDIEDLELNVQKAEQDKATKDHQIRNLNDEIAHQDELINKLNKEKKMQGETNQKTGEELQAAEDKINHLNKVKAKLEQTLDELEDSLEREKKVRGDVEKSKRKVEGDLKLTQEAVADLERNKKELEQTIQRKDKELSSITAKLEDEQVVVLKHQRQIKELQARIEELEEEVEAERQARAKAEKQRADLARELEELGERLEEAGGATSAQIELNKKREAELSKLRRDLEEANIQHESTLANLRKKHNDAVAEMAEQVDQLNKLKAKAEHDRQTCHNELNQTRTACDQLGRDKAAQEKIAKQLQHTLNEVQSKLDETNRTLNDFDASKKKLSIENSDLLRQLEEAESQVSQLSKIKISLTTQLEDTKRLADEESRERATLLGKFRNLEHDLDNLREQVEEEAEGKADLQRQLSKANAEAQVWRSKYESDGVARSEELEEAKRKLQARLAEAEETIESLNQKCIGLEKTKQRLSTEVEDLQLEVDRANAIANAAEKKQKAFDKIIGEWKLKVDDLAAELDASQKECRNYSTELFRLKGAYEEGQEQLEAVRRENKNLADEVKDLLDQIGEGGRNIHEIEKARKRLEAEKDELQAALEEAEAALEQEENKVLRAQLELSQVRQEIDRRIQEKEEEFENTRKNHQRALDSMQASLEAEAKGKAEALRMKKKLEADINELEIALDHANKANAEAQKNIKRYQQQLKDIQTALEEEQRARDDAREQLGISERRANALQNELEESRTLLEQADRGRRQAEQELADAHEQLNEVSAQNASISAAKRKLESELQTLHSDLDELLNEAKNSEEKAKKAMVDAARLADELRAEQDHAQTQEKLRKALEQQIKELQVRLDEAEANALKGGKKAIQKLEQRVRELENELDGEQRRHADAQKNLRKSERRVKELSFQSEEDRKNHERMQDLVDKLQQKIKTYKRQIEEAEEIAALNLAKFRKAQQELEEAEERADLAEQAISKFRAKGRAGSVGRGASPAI
Experimental: A 68.9 kDa 602 aa peptide encompassing V1346 through I1941 of D. melanogaster myosin heavy-chain (herein LMM) with an N-terminal 6× His-tag cloned into pET-23a vector was transformed into E. coli BL-21(DE3) pLysS cells. Cells were grown in Luria broth (LB) containing 100 µg/mL ampicillin and 50 µg/mL chloramphenicol. Upon reaching A600 of 0.8–1.0, culture was chilled on ice for 15 min, and expression was induced by adding IPTG to 0.75 mM and incubating for 16 h at 25 °C with gentle rocking. Induced cells were collected by centrifugation at 10,000 rcf for 10 min and stored as pellets at −40 °C. Pellets were resuspended in lysis buffer described by Korkmaz et al., and lysed by sonication. […] The relative purity of each fraction was assessed via SDS-PAGE stained with Krypton (Thermo Scientific, Rockford, IL, USA). […] Protein concentration was determined via absorbance at 280 nm using an extinction coefficient of 18450 cm^−1 M^−1. […]
Synthetic, 6.6 kDa 52 aa WYR peptide encompassing H84-T136 of D. melanogaster flightin was sourced from Genscript (Piscataway, NJ, USA). Peptide was suspended in ddH2O, filtered through a 0.22 µm Millipore filter, and concentration determined by micro BCA assay and absorbance at 280 nm using an extinction coefficient of 21,430 cm^−1 M^−1. […]

[2] = Circular dichroism of LMM alone, secondary structure estimation; type: physicochemical; details: for CD maximum wavelength: MRE profile, Figure S9; for helicity, range over methods: without CONTIN, CDSSTR, BeStSel; for α helical content, range over methods: all methods
Experimental: A 68.9 kDa 602 aa peptide encompassing V1346 through I1941 of D. melanogaster myosin heavy-chain (herein LMM) with an N-terminal 6× His-tag cloned into pET-23a vector was transformed into E. coli BL-21(DE3) pLysS cells. Cells were grown in Luria broth (LB) containing 100 µg/mL ampicillin and 50 µg/mL chloramphenicol. Upon reaching A600 of 0.8–1.0, culture was chilled on ice for 15 min, and expression was induced by adding IPTG to 0.75 mM and incubating for 16 h at 25 °C with gentle rocking. Induced cells were collected by centrifugation at 10,000 rcf for 10 min and stored as pellets at −40 °C. Pellets were resuspended in lysis buffer described by Korkmaz et al., and lysed by sonication. To purify the MHC peptide, the lysate was rocked at 4 °C with Ni-NTA-agarose resin for one hour in a 20 mL column before being rinsed with 8 column volumes of 20 mM imidazole wash-buffer. The resin was then rinsed in two 15 mL portions of each 40- and 80 mM imidazole wash buffer, with 10 min of rocking in each 15 mL portion. The peptide was eluted in six 1 mL fractions and one 12 mL fraction for a total volume of 18 mL 200 mM imidazole elution buffer. All wash and elution buffers are variants of ‘Buffer A’ described by Korkmaz et al. with the following modifications: imidazole concentration was adjusted to 20 mM, 40 mM or 80 mM for wash buffer and to 200 mM for elution buffer. The relative purity of each fraction was assessed via SDS-PAGE stained with Krypton (Thermo Scientific, Rockford, IL, USA). Selected fractions were further purified and concentrated with an Amicon Ultra-15 50k centrifugal filter, and buffer exchanged into 400 mM NaF, 20 mM sodium phosphate pH 7.0, 1 mM TCEP for storage. Protein concentration was determined via absorbance at 280 nm using an extinction coefficient of 18450 cm^−1 M^−1. Densitometry using ImageJ was carried out on Krypton stained gels to ascertain purity of the sample [23] and the peptide identity verified by mass spectrometry.
WYR and LMM samples ranging from 0.5 to 10 µM were prepared in 700 µL of 215 mM NaF, 20 mM Sodium Phosphate, pH 7, 1 mM TCEP. LMM preparations were centrifuged at 10,000 rcf for 10 min and filtered through a 0.22 µm Millipore filter. Blank samples used an equivalent volume of filtrate from the final flow through from LMM concentrators as used in the experimental samples to account for any possible trace contaminant. These blanks were checked against equivalent freshly prepared buffer. A rectangular STARNA quartz cuvette with a pathlength of 0.2 cm was used throughout. Between experiment days the cuvette received a full wash with the provided STARNA detergent in accordance to STARNA protocol. Between samples, 1× 60% EtOH and 3× dH2O rinses were carried out and residual fluid was evaporated with pressurized nitrogen.
Samples were measured at 25 °C using a Jasco J-1700 spectropolarimeter at a scanning-speed of 20 nm/min with a digital integration time (DIT) of 8 s and bandwidth of 0.5–1 nm over six accumulations, minimally from 260–190 nm on continuous scan mode. A minimum n = 6 was used for measurements of the experimental combination of LMM and WYR and an n = 10 for WYR alone in 215 mM NaF, 20 mM Sodium Phosphate, pH 7, 1 mM TCEP. Wavelengths at maxima and minima, as well as θ222/208 and θ192/208 ellipticity ratios were recorded for all spectra. […] While other analysis programs exist, BeStSel is best suited for non-helical proteins of more unusual structure through both its diverse eight element modelling and inclusion of a basis dataset that incorporates proteins with rare secondary structures. BeStSel was most appropriate given the non-helical profile of WYR along with its high aromatic content and presence of proline.
Independent spectra for each peptide were evaluated after subtracting baseline spectra. […]

[3] = biological target: T2, Myosin heavy chain, muscle (LMM) 1346-1941 (Drosophila melanogaster, UniProt P05661); experiment: co-sedimentation
T2 chain: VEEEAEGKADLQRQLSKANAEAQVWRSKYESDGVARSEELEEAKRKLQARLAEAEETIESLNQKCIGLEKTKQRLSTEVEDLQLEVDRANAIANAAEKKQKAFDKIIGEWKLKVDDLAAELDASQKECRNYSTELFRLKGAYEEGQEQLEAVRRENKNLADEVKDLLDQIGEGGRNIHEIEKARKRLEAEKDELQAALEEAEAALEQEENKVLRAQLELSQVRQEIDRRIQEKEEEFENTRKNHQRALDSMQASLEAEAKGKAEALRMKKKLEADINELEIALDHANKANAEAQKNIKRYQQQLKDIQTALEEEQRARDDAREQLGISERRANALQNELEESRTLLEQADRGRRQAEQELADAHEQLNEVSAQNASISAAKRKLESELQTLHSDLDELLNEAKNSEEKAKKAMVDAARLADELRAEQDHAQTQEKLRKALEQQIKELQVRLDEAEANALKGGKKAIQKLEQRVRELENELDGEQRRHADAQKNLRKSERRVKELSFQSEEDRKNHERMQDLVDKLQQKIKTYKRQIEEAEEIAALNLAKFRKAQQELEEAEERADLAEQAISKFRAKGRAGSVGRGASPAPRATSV

**Q.** With “HWVRPKFLQYKYMYNYRTNYYDDVIDYIDKKQTGVAREIPRPQTWAERVLRT [WYR]” as the molecule, how does the Kd ([1]; Kd 95% CI, 95% confidence interval of Kd, co-sedimentation) read?
**A.** 1550 to 2760 nM

**Q.** What about the “LMM sedimenting in the presence of WYR” value ([1]; upon centrifugation at the WYR/LMM ratio used in CD experiments) of the same molecule?
**A.** ~ 30%

B1: LMM: 68.9 kDa 602 aa peptide encompassing V1346 through I1941 of D. melanogaster myosin heavy-chain with an N-terminal 6× His-tag (protein, UniProt P05661 1346-1941, looked up, fragment)
chain: VEEEAEGKADLQRQLSKANAEAQVWRSKYESDGVARSEELEEAKRKLQARLAEAEETIESLNQKCIGLEKTKQRLSTEVEDLQLEVDRANAIANAAEKKQKAFDKIIGEWKLKVDDLAAELDASQKECRNYSTELFRLKGAYEEGQEQLEAVRRENKNLADEVKDLLDQIGEGGRNIHEIEKARKRLEAEKDELQAALEEAEAALEQEENKVLRAQLELSQVRQEIDRRIQEKEEEFENTRKNHQRALDSMQASLEAEAKGKAEALRMKKKLEADINELEIALDHANKANAEAQKNIKRYQQQLKDIQTALEEEQRARDDAREQLGISERRANALQNELEESRTLLEQADRGRRQAEQELADAHEQLNEVSAQNASISAAKRKLESELQTLHSDLDELLNEAKNSEEKAKKAMVDAARLADELRAEQDHAQTQEKLRKALEQQIKELQVRLDEAEANALKGGKKAIQKLEQRVRELENELDGEQRRHADAQKNLRKSERRVKELSFQSEEDRKNHERMQDLVDKLQQKIKTYKRQIEEAEEIAALNLAKFRKAQQELEEAEERADLAEQAISKFRAKGRAGSVGRGASPAPRATSV
modifications: N-terminal 6xHis tag
notes: 68.9 kDa 602 aa peptide encompassing V1346 through I1941 of D. melanogaster myosin heavy-chain with an N-terminal 6× His-tag
**Q.** For B1, which “fractional alpha helical composition” value ([2]; 208 nm magnitude, [LMM] 2 µM) is on record?
**A.** 28.5%

**Q.** What about the “fractional alpha helical composition” value ([2]; 208 nm magnitude, [LMM] 10 µM) of the same molecule?
**A.** 28.7%

**Q.** And the “fractional alpha helical composition” value ([2]; 222 nm magnitude, [LMM] 2 µM)?
**A.** 18.1%

**Q.** What about the “fractional alpha helical composition” value ([2]; 222 nm magnitude, [LMM] 10 µM) of the same molecule?
**A.** 19.1%

**Q.** And the “fractional alpha helical composition” value ([2]; 230-240 nm slope, [LMM] 2 µM)?
**A.** 14.2%

**Q.** And the “fractional alpha helical composition” value ([2]; 230-240 nm slope, [LMM] 10 µM)?
**A.** 15.3%

**Q.** And the “fractional alpha helical composition” value ([2]; BeStSel (190-260), [LMM] 2 µM)?
**A.** 11.3%

**Q.** What about the “fractional alpha helical composition” value ([2]; BeStSel (190-260), [LMM] 10 µM) of the same molecule?
**A.** 15.6%

**Q.** What about the “fractional alpha helical composition” value ([2]; CDSSTR (SMP180), [LMM] 2 µM) of the same molecule?
**A.** 8%

**Q.** And the “fractional alpha helical composition” value ([2]; CDSSTR (SMP180), [LMM] 10 µM)?
**A.** 17.9%

**Q.** What about the “fractional alpha helical composition” value ([2]; CONTIN (SMP180), [LMM] 10 µM) of the same molecule?
**A.** 8.2%

**Q.** What about the “fractional alpha helical composition” value ([2]; K2D, [LMM] 2 µM) of the same molecule?
**A.** 19%

**Q.** And the “fractional alpha helical composition” value ([2]; K2D, [LMM] 10 µM)?
**A.** 22%

**Q.** And the CD maximum wavelength ([2]; LMM 2 µM)?
**A.** 193-194 nm

**Q.** And the CD maximum wavelength ([2]; LMM 10 µM (higher concentration))?
**A.** 197-198 nm

**Q.** And the 222/208 ratio ([2]; [LMM] 2 µM (low))?
**A.** 1.08

**Q.** And the 222/208 ratio ([2]; [LMM] 10 µM (high))?
**A.** 1.17

**Q.** What about the “helicity, range over methods” value ([2]; high concentration) of the same molecule?
**A.** 15.3 to 28.7%

**Q.** And the “α helical content, range over methods” value ([2]; higher LMM concentration (10 µM))?
**A.** 8.2–28.7%

**Q.** And the “helicity, range over methods” value ([2]; low concentration)?
**A.** 14.2 to 28.5%

**Q.** What about the “α helical content, range over methods” value ([2]; lower LMM concentration (2 µM)) of the same molecule?
**A.** 8–28.5%

B2: Flightin (WYR domain) 84-136 (protein)
chain: HWVRPKFLQYKYMYNYRTNYYDDVIDYIDKKQTGVAREIPRPQTWAERVLRTR
**Q.** Which Kd [3] does the source give for B2 here?
**A.** 2060 nM
